Experiment: label from the status in PepcDB records

Sequence	protein production
MPRRFRQANARLTILSGGIPYLTNTMTLPDRFQQADAVPDDLQQLEARLAEAEDILLRDSPQAEATAREVLAGATAAGCQSLALRSRTVLGRSLAHQKRNEQATELLESVVAESRSAKMPELLVHAWLGLGLAHLNERRMARGLQAYLEALKICESLNAPELSLRVLTNLASAYAKLEQYDTAQPYLTEAHDTARQLGQPFDLMITSLNLACVCQLSGGTGAALTLIEEALRHAKTVASPRYLKSVLFHFSQLLLDLDRLSEALTYCEQGLNTDSGFGTATPQCELQVTHGEILYGLGRPAEARPALEAGLRAAQDLRLNDAEGRARRCYAQLLEDQDDYQGALAQVRALAQLEHDLREQLAAVNLQLEAERLRSETLAEKRRLKEEGRTQQRLAAQLRHDALTGLPNRLALHEALGQQVAADSAPFALLCLDLDHFKTVNHTLGQPAGDALLLYIGERVQAAVGEQGQTFRRGGNEFVVLLPAVRAAPDALTIAQTLLDTINEPLLLDGQALVVTASIGLALFPEDGRDSLTLQKNADLALHAAKQEGGQAQRYRNALSQAANERLELTQALRSGIGNGELVLHYQPIVEVRSGKTVAVEALVRWQHPRLGLLSPDRFIGLAEDNGLIVPLGRWVLNTALRQLAAWREHWPELRVSVNMAPRQLQQPGSCQEIRDALRAYALPPDALELEITEQTICDEEALEPFLPLIREGLRLAIDDFGTGYSSLSRLYRLPAQILKLDRSLIQDLSADNATDGPLVSALIAFAQRFGMQVTAEGIETAEQLHLLRQ	failed
MLHLQTFGDLRLIETNGDAIRYPIKGLLMMAHLYAGASHELSRYELAQFLWNDVESELARLNLRKLLSRIRETDGGRAEIPFDFTATTVRLNTQAVSSDLDIFRAGGSPLERLNAIAELTQRGFIGNIKPATKLIEAWIRAQRDAQALQLRQALLDALPDAQKPGAARSISGAALQILERDPNDEQVRALLHQLSGGSSLSERLPNGDGHARVQVKRSEAGGETTADIERVSQAPLILPRLVLLPPTSKHADAGLALANALIEDVTIELCALRNISIVAPHTAGQIRRDSEKAAVVARHSIAYLLDTRLSEEGLFAQLVYFPTDEIIWANRFTMTPDILPRQRRLIAQQLTMSVARELAENEEERLRFEANPEAYHAYLVGSSLMSKLTLPHIRRARKAFKQSLSHKADFSPSFTGLARTFTSEWLVTAQGNNELLHLAEQNALRAIERDPASAAGHRELGVTKLYLGDVDASVAALDLAEQLSPHFADVIYSHADTLVHASRPGDALAKIRRAISLNPIAPDAYLWCAAGASFFLEQYEEAIAYVEAMKDKAPAHRIAAASCAMIGDRKRALFHRQRAESINPVFDVEKWLAIVPFKEDWQKELYREGLLKAGF	failed
MLVRNICKFTQVMGRFRVVVNPRDYCHLAPLKRSRYHQRSEFGCRPLCSNAAGYEVSWAAPPASGSSGGMFWAFSAAFTLNLFGGADEKEETPEEKLIKTIKRSILCIQREQYDKAEQMLHLALRMAQDIQSKDGITYVFDLMANLAMEREQFKKAEKIFTDVMKRLFAEGHTEESPKILHISSKIAHMSQLQGDLEKSFQGFTWTLQQLAKLLEKMPDDKDILELYGLTKNWFGQLLMKQGKYLEAKNLFKEAFDTLINVYGAVNDASVTILNNISVAYVNLEKYAEARETLLEAMELTKELKDATQEGILQANLGLVYLREGLMSQAENACRLAWKLGKQHQNPDAVEQAEYCLNEIKTTLNGEKRQ	failed
MSGMRVYLGADHAGYELKQRIIEHLKQTGHEPIDCGALRYDADDDYPAFCIAAATRTVADPGSLGIVLGGSGNGEQIAANKVPGARCALAWSVQTAALAREHNNAQLIGIGGRMHTVAEALAIVDAFVTTPWSKAQRHQRRIDILAEYERTHEAPPVPGAPA	not failed
MACFSSLSTGVLDMYDLIIVGGGPSGASAGRVAGKAGISTLLIEKENFPRYKPCGGALSPYALSCLDFKLPEYLIEKDISRIRVHFRELCTEMQKDYSIALLVSRKAFDNFLLDKARETGIDIHSGEKVLDCEEGEECVEVRTSQNTYLAKFVLIAEGSEGVLKYSVRKRKDRRTEYDLALVSEIPERDKVIRKRFPNAIDMHFGIASGGYGWIFPHSEHYSVGIVGTAEHLKHPKAVMQDFLQANGFSGDFQVHSHIIPVGGIKRKTISSRILLSGDAAGFVDAFIGEGISYAIRSGQLAAENVAEIVLYNRKLSDLKEYETSCRKEFGNFLSSSLKLEKAMHRFPETSFRLALSRKEIIDKYLEEVVINRSHKDYVRWLLLNFSLSEPASKIKSIKDKNQLEHHHHHH	failed
MIRKYRYGAPFDTEALTEKIETAEEAFPYGEISQKEGFAFTYIMDEDDIVYGLGESNRGINKRGYCYISNCTDDPIHTEDKRSLYGAHNFIIVSGKTTFGLFFDYPSKLTFDIGYTRMDTLKVSCENADLDIYVIEGENAYDIVKQFRRVIGRSYIPPKFAFGFGQSRWGYTTKEDFRAVAKGYRENHIPIDMIYMDIDYMQDFKDFTVNEKNFPDFPEFVKEMKDQELRLIPIIDAGVKVEKGYEVYEEGVKNNYFCKREDGSDFVAAVWPGDTHFPDMLNPEARKWFGDKYRFLIDQGIEGFWNDMNEPAIFYSSEGLAEAKEFAGEFAKDTEGKIHPWAMQAKMKDIVNSPEDYKRFYHNVNGKKIRHDKVHNLFGYNMTRAAGEAFERIDPEKRFLMFSRSSYIGMHRYGGIWMGDNKSWWSHILLNLKMLPSLNMCGFMYTGADLGGFGDDTTRDLLLRFLALGVFTPLMRDHAAEGTREQECYQFENIEDFRSVINARYRLVPYLYSEYMKAALNDDMYFKPLGFVYPDDKMAIRVEDQLMLGNEIMIAPVYEQNARGRYVYLPEEMKFIKFMPDGSISEEVLEKGVHYVDVALNEVPLFIRSGKCIPVAEAAECVKDIDTENMQLIGYEGSSYTLYEDDGIHKDYDKKENYRVLTK	not failed
MAHPFLRTIFEVVITLYMLHNLYKVLGDDEMDLEEMSSFFNKRVNEYEEHMMNNVGGANQYYIETAKLIPRGKEINILDLGCGTGLELDEIFKINNTVRVTGIDLAENMLRKIKEKHKDKLDRLTLIVGDYFSCDIGEKVFDAALSVETLHHFNHEQKIKLYKKIVRSLKDNGVYIEADYMAPNQDYEDHCFNENKRIRLELGIKDGFYHYDTPCTVENQIKMLYKSGFKSVEKVFKAENTVILLAKK	failed
MNGYRRKNMRLINTTSSHQHLVKNQLKHTDATLVETYSAGNTDVIFTQAPKHYELLISNKHRAIKDNEIETIREFFLKRKINKNIILLDQLKTLHTANLIEISIPIAD	failed
MSFSDHFSAVAASYAKARPRYPQRWFRYLARIVPDRQRVWDCATGNGQAAIALAEYFSEVIGSDASAAQVRQARSHPRVQYLVFPAEATPLAPASLDLITVAQAAHWFDLPQFYIEAQRLLRPGGVIALWGYGLGSLNPAIDHVFNHFYRDWLDPYWPPERQWVEQAYEGLSFPFEPLPTPTFSMQCDWTLFDLLAYLRTWSGVQQFQRQRGFDPVWAIAPELQRVWGDPQRYRRITWPLFAKVGRWQPLEHHHHHH	not failed
MFIHVGSDKVLVKFIVSKFIKDYSNISNKKVRENYGILSSIMGLIVNLILFVIELSIGIFINSIAVIADAFHNLADVSASVITLIGFKLSNKPADKEHPFGHGRVEYLSALLVSAIILLVGVEFIKTSFLRILSPEPVSFNLISFIIMLIAIPLKLWLSLFNKNIGKKINSSALKASGADALNDVYILSSVILSLLVSAFSTISIDGYVGVLIGALIIWSAVNLMKDTIDPLLGQAPDPNLVKSIKKMALKCDVILGVHDLIIHNYGPGRTMISFHAEVPYNIPIMTLHSKIDETEKRISEELDIFVVIHMDPLLIGSPEVSEAKRYVSKILKDFPSVQSFHDFRIVGDGEDKKLIFDIVVPFDVDISEKKLSKLGDDIKSEIIRRHPHYDCVITVDRDYSGI	failed
AVEARQSATEAERRRHRLEQILKTVPSCVVQLDRDGQFVFANQRAIDVLGLSQSELKDRLYNDPEWEIRDLDGHPIPDAELPFRQVLETGQPLSDARHTIHWPDGTEKVLSVNGAPLFDDDGAVESVVCTLTDIT	not failed
MEIGIIGTGNIGGTLARKLIAAGHQVRVANSKGIHGVQSFADEIGATAVDVYGAVKGADAIILSIPLPALASLPNGFFDDLPETVPLIDTSNYYPGLRDPLIPEIDDGMTESVWVSQQLSHPVIKAFNNILAWSLAELGTPKGSASRLAIAVAGDNATLKQIVMNLVDDTGFDAIDAGSLEESWRQQPSTPAYCCDYDAETMKKGLTAAVRGEAASKRDRLPELFGKLGANPTHEDIVAMNRSLNPLEHHHHHH	not failed
MNVFQMLRLPDLVSLLNLICGIGSIAVAAQSDSFGFALILLLLAAVADGADGYIARRFKGGELGEQLDSLADAVSFGVAPALLIFLEFGVEEPIVGIFAGLYAVCGVLRLARFNSSISVPKAGFEGLPITAGCIMLVTYLLLGESFVIVDVLLALTLALSILMVSTVNYPKIRNIKILAFVAAVFGITMLLYFIDVQYMRVFSFLPFILMLSYLFSPFLKIPVISIATSKDYGNRKGAKAEGRKEKQ	failed
SDYEKFLLFGDSITEFAFNTRPIEDGKDQYALGAALVNEYTRKMDILQRGFKGYTSRWALKILPEILKHESNIVMATIFLGANDACSAGPQSVPLPEFIDNIRQMVSLMKSYHIRPIIIGPGLVDREKWEKEKSEEIALGYFRTNENFAIYSDALAKLANEEKVPFVALNKAFQQEGGDAWQQLLTDGLHFSGKGYKIFHDELLKVIETFYPQYHPKNMQYKLKDWRDVLDDGSNIMS	not failed
MDVPSSWDALRKQARKIEAQLDEQMHSYRRLVSTKALSKSDGNESDLEAGIDLLLRQLQQVNAQMQAWVSSGGSEMVSHTLTRHQEILQDLTQEFYRHRSSLRAKQEHASLLEDFREFDRTRLDLEDGYGSEQALIKEHMGINRNTAQMDGVISQAQATLGTLVFQRSTFGGINSKLSNVASRLPTVNTILAAIKRKKSMDTIILSLVAAVCTFLIFIYWITK	failed
MPPCYQHEEEKFFLNAKGQKEALPSIWDSPTKQLSVVVPSYNEEKRLPVMMDEALNYLEKRQKHDCTFTYEVIVVDDGSEDQTSKVALKYCQKYGSDKVRVITLVRNRGKGGAVRMGVFSSRGEKILMADADGATKFPDVEKLEKGLSDLQPWPEQMAIACGSRAHLEKESIAQRSYFRTFLMYGFHFLVWFLCVKGIRDTQCGFKLLTREAAARTFSSLHIERWAFDVELLYIAQCLQIPIAEVAVNWTEIEGSKLVPFWSWLQMGKDLLFIRLRYLTGAWRLKQTRKAS	failed
MHHQRKTHVDNNIAAVELAKAYRLLNHGPTVLVSARSQGIDNVMAAAWCCALDFAPPKLTVVLDKMTKTREFIEQSGMFVIQVPTVAQLQLTHRVGSQSLADDANKLLNCGVELFEMAGHDLPFVAGCSAWLACKLIPEPNNQLQYDLFIAEVIGAWADTQVFNHGHWHFDTAPADKRSLHYIAGGQFYAIGESFNAD	not failed
MSKQIPVQDVTPPAKGDTNNNDLYAKREKIYTRAFTGIFRRLRMVGGAALFLLYFGTVWLNWSGRQAVWWDLPERKFYIFGATFWPQDFMLLSWLLIVCAFGLFFITVFAGRVWCGYTCPQSVWTWIYMWCEKVTEGDRNQRIKLDKAPMSGNKLLRKTAKHSLWLLIGLVTGLTFVGYFSPIRELIPELLTGQADGWAYFWVGFFTLATYGNAGWLREQVCIYMCPYARFQSVMFDKDTLIVSYDPRRGEKRGPRKKSLDYKAQGLGDCIDCTMCVQVCPTGIDIRDGLQIECIGCAACIDACDSIMEKMNYPKGLISYTTEHNLNGQKTHLARPRLIGYAIALVLMISALITAVVLRPLVGFDVSKDRVLYRENELGRIENVYSLKIMNKDQQDHTYILGAKGLEGLTLEGRRELKVAAGDILNLPMELSIEPEKLPSTTNEIVFTIESADDPSIHKEAKSRFIGPRTR	failed
MQGQEDEVVLVEGPTLPETPRLFPLKIRCRADLVRLPLRMSEPLQSVVDHMATHLGVSPSRILLLFGETELSPTATPRTLKLGVADIIDCVVLTSS	not failed

— a protein production outcome set (Wang et al. 2014)
